Results on 1 substance are retold here after patent publication US9833505.

For this experiment, the target named is ZIKV Recombinant Envelope Protein (Meridian Life Sciences, Cat # R01635) (Zika virus). As to the kind of experiment: ELISA on coated recombinant ZIKV E protein, dilutions of the mAb as positive control. In general terms: ELISA stands for enzyme-linked immunosorbent assay.

With “monoclonal anti-Flavivirus group antigen clone D1-4G2-4-15, ascites (Cat# MAB10216, EMD Millipore) (antibody)”, the end point titre turned out to be 16000.
